# Data reported in patent US20180250426A1.
# Target: CA1.CD2-P40 (CA1.CD2 PEGylated with P40) (rat) (UniProt P08921)
# Experiment: Western blot, CA1.CD2 PEGylated with P40
# CA1.CD2-P40 (CA1.CD2 PEGylated with P40) (rat), sequence (P08921 23-121 limits assumed): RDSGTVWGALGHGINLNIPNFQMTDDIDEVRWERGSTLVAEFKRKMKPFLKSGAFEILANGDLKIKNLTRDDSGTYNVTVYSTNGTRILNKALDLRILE
substance,measurement,value
OX34 antibody,decrease of binding against unmodified CA1.CD2,50%
